Target: the molecule itself
Experiment: solution 2D 1H-1H NOESY NMR, 20 mM peptide
Procedure: NMR: All solution state NMR experiments were carried out on a Bruker 700 MHz spectrometer equipped with a cryoprobe. NMR data were processed with TOPSPIN (Bruker), then analysed using Sparky (W. Lee et al. Bioinfo. 2015, 31, 1325) programs. 0.5 mM or 20 mM GV8 peptides were dissolved in water, pH 6.8 with 10% D₂O for deuterium lock and DSS for signal reference. Two dimensional (2D)¹H-¹H TOCSY and NOESY spectra were acquired with 80 ms and 200 ms mixing times, respectively. In order to monitor hydrogel formation, 1D ¹H spectrum and a series of 2D ¹H-¹H NOESY spectra were recorded every four hours for 20 hours using the 20 mM peptide solution. For H/D exchange experiments, 0.5 mM and 20 mM peptide samples were dissolved in 100% D₂O and 2D ¹H-¹H TOCSY spectra were recorded at 30 min intervals. The extrinsic exchange rates were obtained by fitting the peak intensity vs. time to a single-exponential decay equation. The protection factor were calculated as the ratio of intrinsic exchange rates (calculated from SPHERE (Bai et al. Proteins. 1993, 17, 75)) to the extrinsic exchange rates. […] Amide temperature coefficients were also determined by recording 1D ¹H spectra of 0.5 mM and 20 mM GV8 peptide at 298 K, 303 K, 308 K and 313 K. Amide proton chemical shift deviations were fitted linearly against temperature and the temperature coefficients were calculated as σδHN/ΔT (ppb K⁻¹).

B1: Ac-GLYGGYGV-NH2 (GV8) peptide (peptide)
peptide: Ac-GLYGGYGV-NH2
notes: Synthetic 8-residue peptide, a repeat derived from suckerin-19; It is entered only for its self-association (dimer or oligomer in solution at 20 mM, antiparallel beta-sheets in the hydrogel); For the ssNMR experiments the peptide was uniformly 13C-15N labelled
B1: binds.

Reference: patent publication US20220024979A1 (NANYANG TECHNOLOGICAL UNIVERSITY, published 2022)
